Laboratory results: paper PMC3142112, “Rationally Designed Turn Promoting Mutation in the Amyloid-β Peptide Sequence Stabilizes Oligomers in Solution” (PLoS ONE, 2011)

Key:
Assay type in all cases: physicochemical
[1] = One-dimensional 1H NMR of peptide preparations (soluble versus aggregated state); conditions: 10% DMSO/PBS
Method: All peptides were used as supplied. Solution samples of the peptides were prepared as follows. Peptides were dissolved in 1,1,1,3,3,3-hexafluoro-2-propanol (HFIP) to concentrations of 1 mM HFIP, evaporated over nitrogen, and then dried in a Savant Speed Vac for 1 hr. The resultant peptide films were further kept under vacuum for a few hours to remove solvent traces. The films were stored at −80°C until use. Peptide films were dissolved to ∼0.5 mM concentrations in 10% d6-DMSO/10 mM PBS buffer to a final pH of 7.2. The solutions were incubated at 4°C for 12 hours, and then transferred to 37°C for 4 hours. The resulting solutions were centrifuged at 13000 rpm in a desktop centrifuge (Eppendorf) at 4°C for 30 min to remove any precipitated gel-form of the peptides. After centrifugation, the peptide concentrations were adjusted to 0.4 mM (concentrations were checked by UV visible spectroscopy), 0.05% sodium azide added as a bacteriostat and transferred to 5 mm NMR tubes. […]
NMR spectra were acquired at the Stanford Magnetic Resonance Laboratory on a Bruker Avance 500 MHz spectrometer running TopSpin v1.3 and equipped with a 5 mm H{CN} Z-axis gradient CryoProbe. […] The data was processed in TopSpin and analyzed with SPARKY [38].

[2] = Atomic force microscopy of peptide preparations; conditions: 25 µM peptide adsorbed 10 min onto silicon wafers, tapping mode
Method: High-resolution analysis of the peptide solution preparations were carried out using atomic force microscopy (AFM).
AFM topography images were acquired in the light tapping mode regime using a Multimode AFM (Veeco, USA). Resonant frequencies of the uncoated silicon tips (MikroMasch, USA) were roughly 150 kHz, with scan rates around 5–8 µm/s. Peptide samples were prepared using the protocol described above and diluted to 25 µM before application. Peptide solutions were adsorbed by incubating onto Pirahna cleaned silicon wafers with molecular smoothness (∼1 Å RMS roughness) as determined by AFM. After incubating for 10 min, the wafers are gently washed repeatededly with MilliQ water.

[3] = Thioflavin T fluorescence (aggregation / mature fibril formation); conditions: 25 µM fibrils (Aβ42WT) or SEC-eluted mutant oligomers, 5 µM ThT, 2 h incubation, excitation 440 nm, emission 480 nm, 25°C
Method: Thioflavin T fluorescence was used to assess aggregation and mature fibril formation as β-sheet content is directly correlated with fluorescence intensity of the dye.
Mean residue ellipticity (θ) was determined according to the equation θ = θObs • MRW/(10 • l • c); where θObs is observed ellipticity, MRW is mean residue weight of the peptide, c is peptide concentration (g/L), and l is optical path length (cm). The thioflavin T (ThT) binding studies of Aβ42WT and mutant peptides were carried out by incubating precipitated fibrils of the Aβ42WT or eluted oligomer preparation from the SEC column. The 25 µM amyloid fibrils (Aβ42WT) or oligomers of mutant were mixed with 5 µM of ThT dye concentration. After 2 h incubation, the fluorescence of the sample solutions were recorded by exciting at 440 nm and the intensity at 480 nm is monitored using Perkin-Elmer LC 55B spectrofluorimeter. The bandwidths of excitation/emission wavelengths were 5 nm/each.

[4] = Circular dichroism spectroscopy (conformation / fibril development)
Method: Conformational analyses of the mutant and Aβ42WT peptides were also carried out by Circular Dichroism (CD) spectroscopy.
The fibrils from the Aβ42WT preparation were centrifuged at 12000 rpm for 15 min to separate from any remaining monomer and the pellet was re-suspended in 10 mM phosphate pH 7.2 for CD measurement. CD measurements were performed using a 0.1 mm path length quartz cell in an Aviv 62A DS Circular Dichroism spectrometer (Aviv Associates, Lakewood, NJ) at 22°C.
The thioflavin T (ThT) binding studies of Aβ42WT and mutant peptides were carried out by incubating precipitated fibrils of the Aβ42WT or eluted oligomer preparation from the SEC column. The 25 µM amyloid fibrils (Aβ42WT) or oligomers of mutant were mixed with 5 µM of ThT dye concentration. After 2 h incubation, the fluorescence of the sample solutions were recorded by exciting at 440 nm and the intensity at 480 nm is monitored using Perkin-Elmer LC 55B spectrofluorimeter. The bandwidths of excitation/emission wavelengths were 5 nm/each.

## Aβ42WT: wild type form of Aβ42, recombinant purified, unlabeled and 15N-labeled, from rPeptide
[1]; 0.4 mM
  species formed in preparation: formed fibrils
[1]; pH 7.2, 25°C, samples prepared in the same manner
  state in solution by 1D 1H NMR (amide/aromatic region): very little observable signal
[2]
  mean globular structure height (AFM): 4.32 nm
[3]
  Thioflavin T fluorescence of Aβ42WT compared to Aβ42Nle35p37: about four
[4]; 0.1 mm path length cell, WT fibril pellet in 10 mM phosphate pH 7.2, mutant SEC-eluted
  conformation by CD spectrum: β-sheet rich, mature fibrils
[4]; PBS buffer, absorbance at ∼220 nm
  period over which aggregate develops into β-sheet rich, mature fibrils (CD): 12 h
